Source: patent publication US20220356229A1 (published 2022)
Where a chain is given by its changes, count along the chain named.

Assays:
[1] = target: SARS-CoV Spike protein (full length Spike, coupled to optically encoded beads) (SARS-CoV, UniProt P59594 14-1190)
[2] = target: SARS-CoV-2 Spike (S) protein, wild type, full length (SARS-CoV-2, UniProt P0DTC2 14-1208)

B1: anti-SARS-CoV-2 antibody 385 (antibody, V domains shown)
VH: QVQLVESGGGVVQPGRSLRLSCAASGFTFSSYAIHWVRQAPGKGLEWVAVISYDGSNKYYADSVKGRFTISRDNSKNTLYLQMNSLRAEDTAVYYCARPRSGSYWGAFDIWGQGTMVTVSS
VL: QSVLTQPPSVSGAPGQRVTISCTGSSSNIGARYDVHWYQQLPGTAPKLLIYGNSNRPSGVPDRFSGSKSGTSASLAITGLQAEDEADYYCQSYDSSLRGVFGGGTKLTVL
For B1, the “median fluorescence, fold over isotype” value [1] was 59.6 fold over isotype.

B2: anti-SARS-CoV-2 antibody 392 (antibody, V domains shown)
VH: QVQLQESGPGLVKPSGTLSLTCAVSGGSISSSNWWSWVRQPPGKGLEWIGEIYHSGSTNYNPSLKSRVTISVDKSKNQFSLKLSSVTAADTAVYYCARGWRATLYGMDVWGQGTTVTVSS
VL: QSALTQPASVSGSPGQSITISCTGTSSDVGSYNLVSWYQQHPGKAPKLMIYEVSKRPSGVSNRFSGSKSGNTASLTISGLQAEDEADYYCCSYAGSSTWVFGGGTKLTVL
In the case of B2, the “median fluorescence, fold over isotype” value [1] is reported as 1.08 fold over isotype.

B3: anti-SARS-CoV-2 antibody 395 (antibody, V domains shown)
VH: QVQLVQSGSELKKPGASVKLSCQASGYTFSNHAMNWVRQAPGQGLEWMGWINTNTGNPTYAQGFTGRFVFSLDTSVGTAYLHISSLKAEDTAFYYCARASARPGVATNLDFWGQGTLVVVSS
VL: DIQMTQSPSSLSASVGDRVTITCRTSQNIDNYLNWYQQKPGKAPNLLIYAASRLHSGVPSRFSGSGSGTDFTLIISSLQPEDLATYYCQQSYSNPLTFGPGTKVDIR
With B3 the “median fluorescence, fold over isotype” value [1] was 1.16 fold over isotype.

B4: anti-SARS-CoV-2 antibody 396 (antibody, V domains shown)
VH: QVQLQQWGAGLLKPSETLSLTCAVYGGSFSGYYWSWIRQPPGKGLEWIGEIIHSGSTNYNPSLKSRVTISVDTSKNQFSLKLSSVTAADTAVYYSARRTGLLWFREGSYYFDYWGQGTLVTVSS
VL: DIQMTQSPSSLSASVGDRVTITCRASQGIRNDLGWYQQKPGKAPKRLIYAASSLQSGVPSRFSGSGSGTEFTLTISSLQPEDFATYYCLQHNSYPLTFGGGTKVEIK
For B4, the “median fluorescence, fold over isotype” value [1] was 1.36 fold over isotype.

B5: anti-SARS-CoV-2 antibody 404 (antibody, V domains shown)
VH: QVQLVESGGGVVQPGRSLRLSCAASGFTFSSYGMHWVRQAPGKGLEWVAVIWYDGSNKYYADSVKGRFTISRDNSKNTLYLQMNSLRAEDTAVYYCARLAVDISFDGSDGMDVWGQGTTVTVSS
VL: SYELTQPPSVSVSPGQTARITCSGDALPKKYAYWYQQKSGQAPVLVIYEDSKRPSGIPERFSGSSSGTMATLTISGAQVEDEADYYCYSTDSSGKGVFGTGTKVTVL
B5 was tested, and the “median fluorescence, fold over isotype” value [1] was 1.04 fold over isotype.

B6: anti-SARS-CoV-2 antibody 405 (antibody, V domains shown)
VH: not shown
VL: B2 VL with A8R, I18V, S31G, L34Y, E52D, S61P, N62D, S97Y, T98N, W99V
For B6, the “median fluorescence, fold over isotype” value [1] was 80.9 fold over isotype.

B7: anti-SARS-CoV-2 antibody 407 (antibody, V domains shown)
VH: QVQLVESGGGVVQPGRSLRLSCAASGFTFSSYGMHWVRQAPGKGLEWVAVISYDGSNKYYADSVKGRFTISRDNSKNTLYLQMNSLRAEDTAVYYCAKCGWDYDFWVGQGYGMDVWGQGTTVTVSS
VL: not shown
With B7 the “median fluorescence, fold over isotype” value [1] was 1.07 fold over isotype.

B8: anti-SARS-CoV-2 antibody 409 (antibody, V domains shown)
VH: QVTLRESGPALVKPTQTLTLTCTFSGFSLSTSGMCVSWIRQPPGKALEWLALIDWDDDKYYSTSLKTRLTISKDTSKNQVVLTMTNMDPVDTATYYCARTTYYYVSGRRAEFDPWGQGTLVTVSS
VL: NFMLTQPHSVSESPGKTVTISCTGSSGSIASNYVQWYQQRPGSAPTTVIYEDNQRPSGVPDRFSGSIDSSSNSASLTISGLKTEDEADYYCQSYDSSNQGVFGGGTKLTVL
For B8, the “median fluorescence, fold over isotype” value [1] was 1.03 fold over isotype.

B9: anti-SARS-CoV-2 antibody 412 (antibody, V domains shown)
VH: QVQLVQSGAEVKKPGASVKVSCKASGYTFTSYGISWVRQAPGQGLEWMGWISAYNGNTNYAQKLQGRVTMTTDTSTSTAYMELRSLRSDDTAVYYCARVTVEAIFGVVILPLKNWFDPWGQGTLVTVSS
VL: QSVLTQPPSVSGAPGQRVTISCTGSSSNIGAGYDVHWYQQLPGTAPKLLIYGNSNRPSGVPDRFSGSKSGTSASLAITGLQAEDEADYYCQSYDSSLTLYVFGTGTKVTVL
With B9 the “median fluorescence, fold over isotype” value [1] was 1.09 fold over isotype.

B10: anti-SARS-CoV-2 antibody 421 (antibody, V domains shown)
VH: QVQLVESGGGVVQPGRSLRLSCAASGFTFSTYAMHWVRQAPGKGLEWVAVISYDGSNKYYADSVKGRFTISRDNSKNTLYLQMNSLRAEDTAVYYCARGYGSGSYYPLYLYWGQGTLVTVSS
VL: not shown
In the case of B10, the “median fluorescence, fold over isotype” value [1] is reported as 1.19 fold over isotype.

B11: anti-SARS-CoV-2 antibody 422 (antibody, V domains shown)
VH: QVQLVQSGSELKKPGASVKVSCKASGYTFTSYAMNWVRQAPGQGLEWMGWINTNTGNPTYAQGFTGRFVFSLDTSVSTTYLQISSLKAEDTAVYYCARVIGVVTYYYYGMDVWGQGTTVTVSS
VL: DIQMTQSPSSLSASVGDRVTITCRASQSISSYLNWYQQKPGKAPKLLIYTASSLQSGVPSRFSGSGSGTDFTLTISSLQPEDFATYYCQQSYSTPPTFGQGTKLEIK
With B11 the “median fluorescence, fold over isotype” value [1] was 1.19 fold over isotype.

B12: anti-SARS-CoV-2 antibody 423 (antibody, V domains shown)
VH: EVQLVESGGGLIQPGGSLRISCAASGFTVRNNHMSWVRQAPGKGLEWVSVFYRGGTTYYADSVKGRFTISRDDSKNTVDLQMNSLRGEDTAVYYCARGLSVAASGYFDCWGQGTLVTVSS
VL: DIQMTQSPSSVSASVGDTVTITCRANQGISSWLAWYQQVPGKAPELLIYATSTLQSGVPSRFSGSGSGTDFTLTISSLQPEDFATYYCQQANSFPFTFGPGTKVDIK
With B12 the “median fluorescence, fold over isotype” value [1] was 1.23 fold over isotype.

B13: antibody 264 (antibody, V domains shown)
VH: QVHLVESGGGVVQPGRSLRLSCAASGFTLTSYAMHWVRQAPGKGLEWVALISYDGSVKKYAESVKGRITVSGDNSRNTLHLQINTLRADDTAVYYCVRGGVSGPNSFDLWGQGTMVTVSS
VL: DVVMTQSPLSLPVTLGQPASISCRSSQSLEYSDGNTYVNWFQQRPGQSPRRLIYQVSNRASGVPDRFSGSGSGTDFTLQISRVEAEDVGIYYCMQGTHWPVTFGQGTKVEIK
B13 was tested, and the “bead binding signal (fold over isotype)” value [2] was 598 fold over isotype.

B14: antibody 265 (antibody, V domains shown)
VH: EVQLVQSGAEVKKPGATVKVSCKFSGDTFSHYYIHWVQQAPGKGLEWMGLVDPQDGESEYAQKFQGKVTITADTSIDTSYLEVTSLRFDDTAFYFCATRGMSGAFDRWGQGTLVTVSS
VL: DIVMTQSPDSLAVSLGERATINCKSSQSILSTSNNKNYLAWYQQKPGQPPKLLIYWASTRESGVPDRFSGGGSGTDFTLTISSLQAEDVAVYYCQQYYRTAYTTPIYTFGQGTKLEIK
For B14, the “bead binding signal (fold over isotype)” value [2] was 1280 fold over isotype.

B15: antibody 273 (antibody, V domains shown)
VH: QVQLVQSGAEVKKPGASVKVSCKVSGYTLTELSMHWVRQAPGKGLEWMGGFDPEDGETIYAQKFQGRVTMTEDTSTDTAYMELSSLRSEDTAVYYCATAPGYYDSSAPQPINWFDPWGQGTLVTVSS
VL: B2 VL with W99L
B15 was tested, and the “bead binding signal (fold over isotype)” value [2] was 924 fold over isotype.

B16: antibody 276 (antibody, V domains shown)
VH: QVQLQESGPGLVKPSQTLSLTCTVSGDSISSGGYYWSWIRQHPGKGLEWIGYIYYSGSAYYNPSLKSRVTISLDTSKNQFSLKLSSVTAADTAVYYCARDSVAGFSIFDYWGQGTLVTVSS
VL: SSELTQDPAVSVALGQTVRITCQGDSLRSYYASWYQQKPGQAPVRVIYGKNNRPSGIPDRFSGSSSGNTASLTITGAQAEDEADYYCNSWDSSGNHVVFGGGTKLTVL
B16 was tested, and the “bead binding signal (fold over isotype)” value [2] was 748 fold over isotype.

B17: antibody 281 (antibody, V domains shown)
VH: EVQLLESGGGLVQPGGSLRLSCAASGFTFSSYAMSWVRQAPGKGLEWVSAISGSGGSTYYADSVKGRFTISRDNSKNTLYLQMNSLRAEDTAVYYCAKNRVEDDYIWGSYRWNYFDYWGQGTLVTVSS
VL: QSALTQPASVSGSPGQSITISCTGTSSDVGSYNLVSWYQQHPGKAPKLMIYEVSKRPSGVSNRFSGSKSGNTASLTISGLQAEDEADYYCCSYAGSSTHVVFGGGTKLTVL
B17 was tested, and the “bead binding signal (fold over isotype)” value [2] was 570 fold over isotype.
